For series [1], the system named is O=C[C@H](O)[C@H](O)COP(=O)(O)O. As to the kind of experiment: DHS enzymatic activity assay with recombinant AthDHS3. The settings on record: other: various concentrations of the substrate; means ± SEM, n = 3; pH 7.4. Format: biochemical, Arabidopsis thaliana. The protocol: Unless otherwise noted, DHS enzymatic activity was monitored as previously described ([Liu et al., 2008]), with several optimizations for high-throughput assays with eight-strip PCR tubes and a thermal cycler. The enzyme solution (7.7 µL) containing 50 mM HEPES (pH 7.4) was preincubated with an effector molecule(s) at room temperature for 10 min. For assays using recombinant protein and enzyme fraction isolated from plant leaves, 0.01–0.05 µg and approximately 50 µg of proteins were used, respectively. After adding 0.5 µL of 0.1 M DTT, the samples were further incubated at room temperature for 15 min. […] The enzyme reaction was started by adding 6.8 µL of the substrate solution, then incubated at 37°C for 20 min, and terminated by adding 30 µL of 0.6 M trichloroacetic acid. After brief centrifugation, 5 µL of 200 mM NaIO4 (sodium meta-periodate) in 9 N H3PO4 was added to oxidize the enzymatic product and incubate at 25°C for 20 min. To stop the oxidation reaction, 20 µL of 0.75 M NaAsO2 (sodium arsenite), which was dissolved in 0.5 M Na2SO4 and 0.05 M H2SO4, was immediately mixed. After 5 min of incubation at room temperature, one-third of the sample solution was transferred to a new tube to be mixed with 50 µL of 40 mM thiobarbituric acid and incubated at 99°C for 15 min in a thermal cycler. Developed pink chromophore was extracted by putting the final solutions with 600 µL of cyclohexanone in eight-strip solvent-resistant plastic tubes, mixing vigorously and centrifuging them at 4,500 × g for 3 min to separate water- and cyclohexanone-based layers. The absorbance of the pink supernatant was read at 549 nm with the microplate reader (Infinite 200 PRO, TECAN, Männedorf, Switzerland) to calculate DAHP production with the molar extinction coefficient at 549 nm (ε = 549 nm) of 4.5 × 10^4/M/cm. […]
For determination of kinetic parameters, the data of enzymatic activities measured in the presence of various concentration of substrates were calculated with the Michaelis–Menten equation in Graphpad Prism 6 (GraphPad Software, San Diego, CA, USA).

Series [2] relates to C=C(OP(=O)(O)O)C(=O)O. As to the kind of experiment: purified protein, by the assay type. The settings on record: other: various concentrations of the substrate; means ± SEM, n = 3; pH 7.4.

What is called Km is the concentration of substrate that gives half-maximal velocity. The kcat is the number of substrate molecules converted per active site and unit of time at saturation. Broadly, the kcat/Km is the turnover number divided by the Michaelis constant.

Sequence of AthDHS3 (Arabidopsis thaliana) (chain, as listed by the source): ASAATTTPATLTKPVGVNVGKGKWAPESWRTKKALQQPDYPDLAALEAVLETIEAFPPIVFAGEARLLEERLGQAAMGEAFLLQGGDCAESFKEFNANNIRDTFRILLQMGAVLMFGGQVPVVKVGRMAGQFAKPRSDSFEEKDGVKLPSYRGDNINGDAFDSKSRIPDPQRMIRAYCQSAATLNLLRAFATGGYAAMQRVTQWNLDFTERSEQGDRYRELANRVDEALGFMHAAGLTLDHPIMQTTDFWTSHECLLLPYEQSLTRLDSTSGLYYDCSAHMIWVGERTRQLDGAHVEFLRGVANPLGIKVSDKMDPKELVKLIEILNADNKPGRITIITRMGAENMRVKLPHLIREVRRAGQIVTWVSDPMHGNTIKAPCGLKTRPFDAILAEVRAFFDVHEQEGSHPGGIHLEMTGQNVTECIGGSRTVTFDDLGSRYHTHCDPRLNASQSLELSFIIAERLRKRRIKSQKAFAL

Regarding AthDHS3 (Arabidopsis thaliana), in series [1], the Km worked out at 1550 ± 276 µM, the catalytic constant (kcat) was determined as 9.13 ± 0.28 s⁻¹ and the kcat/Km was determined as 6350 ± 160 M⁻¹ s⁻¹. In addition, in series [2], the Km came to 706 ± 124 µM, the kcat came out at 8.42 s⁻¹ and the kcat/Km turned out to be 12400 M⁻¹ s⁻¹.
